US20030054488A1 (published 2003)
Blank lines part the entries; values can stand above or below the binder they belong to.

Assays:
[1] = molecular target: T1, HeLa1 beta-galactosidase-derived fusion protein containing the N-terminal 150 residues of GPBP (human, UniProt Q5R6M6 1-150 (Pongo abelii entry)); experiment: lambda-gt11 expression library filters overlaid with GPpep1, detected with monoclonal antibody
T1 construct: Expressed from the lambda-gt11 clone on library filters and as a lysogen in E. coli Y1089; also called HeLa1 lambda-gt11 fusion protein; not shown: beta-galactosidase part encoded by the lambda-gt11 vector
T1 sequence: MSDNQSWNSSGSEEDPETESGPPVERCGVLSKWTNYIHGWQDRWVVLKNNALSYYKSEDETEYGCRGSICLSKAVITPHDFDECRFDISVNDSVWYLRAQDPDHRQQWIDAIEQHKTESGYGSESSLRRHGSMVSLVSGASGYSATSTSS
Protocol: Isolation and characterization of cDNA clones encoding human GPBP—Several human λ-gt11 cDNA expression libraries (eye, fetal and adult lung, kidney and HeLa S3, from CLONTECH) were probed for cDNAs encoding proteins interacting with GPpep1. Nitrocellulose filters (Millipore) prepared following standard immunoscreening procedures were blocked and incubated with 1-10 nmoles per ml of GPpep1 at 37° C. Specifically bound GPpep1 was detected using M3/1A monoclonal antibodies (7). A single clone was identified in the HeLa-derived library (HeLa1). Specificity of fusion protein binding was confirmed by similar binding to recombinant eukaryotic human GP antigen. The EcoRI cDNA insert of HeLa1 (0.5-kb) was used to further screen the same library and to isolate overlapping cDNAs. The largest cDNA (2.4-kb) containing the entire cDNA of HeLa1 (n4′) was fully sequenced.

[2] = molecular target: T2, GPpep1 Ala9
T2 chain: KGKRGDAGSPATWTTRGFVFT

[3] = molecular target: T3, rMBPΔII Ser to Ala mutant in position 57
T3 chain: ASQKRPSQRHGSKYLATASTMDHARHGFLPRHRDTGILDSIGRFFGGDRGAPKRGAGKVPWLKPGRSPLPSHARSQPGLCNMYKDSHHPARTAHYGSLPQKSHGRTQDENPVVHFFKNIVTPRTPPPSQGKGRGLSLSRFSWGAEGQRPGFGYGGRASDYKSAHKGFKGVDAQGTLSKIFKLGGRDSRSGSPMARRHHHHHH

[4] = molecular target: T4, recombinant 21 kDa myelin basic protein (rMBP), P02686
T4 chain: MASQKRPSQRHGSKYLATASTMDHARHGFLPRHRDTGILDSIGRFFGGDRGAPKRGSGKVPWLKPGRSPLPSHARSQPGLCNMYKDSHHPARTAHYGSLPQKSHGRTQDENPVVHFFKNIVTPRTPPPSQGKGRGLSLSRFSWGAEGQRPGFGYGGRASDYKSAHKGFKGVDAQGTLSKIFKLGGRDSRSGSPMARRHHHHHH

[5] = molecular target: T5, rMBP Ser to Ala mutant in position 57, P02686
T5 chain: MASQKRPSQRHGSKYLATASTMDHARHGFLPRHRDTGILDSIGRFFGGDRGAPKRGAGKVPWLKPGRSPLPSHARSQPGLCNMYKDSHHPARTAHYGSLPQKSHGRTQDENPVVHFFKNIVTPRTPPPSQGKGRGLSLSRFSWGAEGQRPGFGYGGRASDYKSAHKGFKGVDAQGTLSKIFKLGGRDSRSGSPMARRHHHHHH

[6] = molecular target: T6, GPΔIII derived peptide
T6 chain: QRAHGQDLDALFVKVLRSP

[7] = molecular target: T7, recombinant 18.5 kDa myelin basic protein lacking exon II (rMBPΔII)
T7 chain: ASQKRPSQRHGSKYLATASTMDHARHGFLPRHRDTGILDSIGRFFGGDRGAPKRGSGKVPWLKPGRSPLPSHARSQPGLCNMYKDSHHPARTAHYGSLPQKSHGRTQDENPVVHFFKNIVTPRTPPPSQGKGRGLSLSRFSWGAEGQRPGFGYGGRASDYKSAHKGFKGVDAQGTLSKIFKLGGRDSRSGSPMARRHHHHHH

[8] = molecular target: T8, rMBPΔII Ser to Ala mutant in position 8
T8 chain: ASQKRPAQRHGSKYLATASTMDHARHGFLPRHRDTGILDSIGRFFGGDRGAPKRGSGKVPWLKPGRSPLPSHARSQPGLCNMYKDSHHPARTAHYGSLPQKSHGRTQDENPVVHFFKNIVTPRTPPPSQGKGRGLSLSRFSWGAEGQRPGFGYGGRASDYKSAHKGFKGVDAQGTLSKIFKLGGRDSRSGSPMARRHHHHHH

[9] = molecular target: T9, rMBP Ser to Ala mutant in position 8, P02686
T9 chain: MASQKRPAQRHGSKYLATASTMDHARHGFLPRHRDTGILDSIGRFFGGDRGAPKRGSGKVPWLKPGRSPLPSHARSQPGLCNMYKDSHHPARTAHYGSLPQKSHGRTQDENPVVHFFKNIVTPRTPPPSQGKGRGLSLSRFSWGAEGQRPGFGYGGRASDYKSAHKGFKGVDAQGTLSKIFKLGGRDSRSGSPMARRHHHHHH

[10] = molecular target: native bovine GP antigen
[11] = molecular target: T10, Human recombinant GP antigen (rGP) produced in 293 cells, Q01955
T10 chain: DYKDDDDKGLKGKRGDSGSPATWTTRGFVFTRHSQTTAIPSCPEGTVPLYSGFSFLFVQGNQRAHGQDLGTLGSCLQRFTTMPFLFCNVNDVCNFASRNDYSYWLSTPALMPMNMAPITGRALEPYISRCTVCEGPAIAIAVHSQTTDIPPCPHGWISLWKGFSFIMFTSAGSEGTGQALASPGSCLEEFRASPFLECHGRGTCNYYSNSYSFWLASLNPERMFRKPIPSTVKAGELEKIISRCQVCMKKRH

[12] = molecular target: T11, native human GP antigen (alpha3(IV)NC1 domain), Q01955
T11 chain: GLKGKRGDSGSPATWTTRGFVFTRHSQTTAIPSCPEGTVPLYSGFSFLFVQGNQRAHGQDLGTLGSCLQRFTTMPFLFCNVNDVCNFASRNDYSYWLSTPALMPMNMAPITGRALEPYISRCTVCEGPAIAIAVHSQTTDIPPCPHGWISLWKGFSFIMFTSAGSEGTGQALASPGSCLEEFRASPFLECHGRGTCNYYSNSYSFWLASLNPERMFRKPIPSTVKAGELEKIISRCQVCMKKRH

[13] = molecular target: T12, GPpep1
T12 chain: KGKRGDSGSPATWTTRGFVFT

[14] = molecular target: the molecule itself; experiment: gel filtration HPLC and analytical ultracentrifugation (peak II 220±10 kDa, likely trimers)
Protocol: FIG. 11. rGPBP and rGPBPΔ26 form very active high molecular weight aggregates. About 300 μg of rGPBP (A) or rGPBPΔ26 (B) were subjected to gel filtration HPLC as described under Material and Methods. Vertical arrowheads and numbers respectively indicate the elution profile and molecular mass (kDa) of the molecular weight standards used. Larger aggregates eluted in the void volume (I), and the bulk of the material present in the samples eluted in the fractionation range of the column as a second peak between the 669 and 158 kDa markers (II). Fifteen microliters of the indicated minute fractions were subjected to SDS-PAGE and Coomasie blue staining. Five microliters of the same fractions were in vitro phosphorylated as described in Materials and Methods, and the reaction stopped by boiling in SDS sample buffer. […]
Gel-filtration HPLC. […] The material was eluted from the column at 0.5 ml/min, monitored at 220 nm and minute fractions collected.
rGPBP and rGPBP-26 exist as very active high molecular weight aggregates. Gel filtration analysis of affinity-purified rGPBP or rGPBPΔ26 yielded two chromatographic peaks (I and II), both displaying higher MW than expected for the individual molecular species, as determined by SDS-PAGE studies (89 kDa and 84 kDa, respectively ) (FIG. 11). […] ATP, and analyzed by immunoblot and autoradiography.

binding result [1]: binds
B1: GPpep1 (peptide)
peptide: KGKRGDSGSPATWTTRGFVFT
notes: also called 21-residue peptide representing residues 3-23 of the human GP antigen

B2: FLAG-tagged recombinant GPBP (rGPBP) (protein)
chain: DYKDDDDKMSDNQSWNSSGSEEDPETESGPPVERCGVLSKWTNYIHGWQDRWVVLKNNALSYYKSEDETEYGCRGSICLSKAVITPHDFDECRFDISVNDSVWYLRAQDPDHRQQWIDAIEQHKTESGYGSESSLRRHGSMVSLVSGASGYSATSTSSFKKGHSLREKLAEMETFRDILCRQVDTLQKYFDACADAVSKDELQRDKVVEDDEDDFPTTRSDGDFLHSTNGNKEKLFPHVTPKGINGIDFKGEAITFKATTAGILATLSHCIELMVKREDSWQKRLDKETEKKRRTEEAYKNAMTELKKKSHFGGPDYEEGPNSLINEEEFFDAVEAALDRQDKIEEQSQSEKVRLHWPTSLPSGDAFSSVGTHRFVQKPYSRSSSMSSIDLVSASDDVHRFSSQVEEMVQNHMTYSLQDVGGDANWQLVVEEGEMKVYRREVEENGIVLDPLKATHAVKGVTGHEVCNYFWNVDVRNDWETTIENFHVVETLADNAIIIYQTHKRVWPASQRDVLYLSVIRKIPALTENDPETWIVCNFSVDHDSAPLNNRCVRAKINVAMICQTLVSPPEGNQEISRDNILCKITYVANVNPGGWAPASVLRAVAKREYPKFLKRFTSYVQEKTAGKPILF
^32P incorporation, in vitro phosphorylation [2]: The lower ^32P incorporation displayed by GPpep1 Ala^9 when compared with GPpep1
^32P incorporation, in situ phosphorylation of blotted substrate [3]: recombinant Ser to Ala mutants displayed no significant reduction in ^32P incorporation
^32P incorporation, in situ phosphorylation of blotted substrate [4]: GPBP preferentially phosphorylated MBP
^32P incorporation, in situ phosphorylation of blotted substrate [5]: recombinant Ser to Ala mutants displayed no significant reduction in ^32P incorporation
GPBP autophosphorylation, 5 nmol peptide, Boc chemistry [6]: Boc-based synthetic peptides positively influenced GPBP autophosphorylation
GPBP autophosphorylation, 5 nmol peptide, Fmoc chemistry [6]: Fmoc-based inhibited GPBP autophosphorylation
^32P incorporation, in situ phosphorylation of blotted substrate [7]: little phosphorylation of MBPΔII was observed
^32P incorporation, in situ phosphorylation of blotted substrate [8]: recombinant Ser to Ala mutants displayed no significant reduction in ^32P incorporation
^32P incorporation, in situ phosphorylation of blotted substrate [9]: recombinant Ser to Ala mutants displayed no significant reduction in ^32P incorporation
^32P incorporation, in vitro phosphorylation [10]: no appreciable ^32P-incorporation was observed in the bovine-derived substrate
^32P incorporation, in vitro phosphorylation [11]: Affinity-purified rGPBP phosphorylates all human-derived material to a different extent
^32P incorporation, in vitro phosphorylation [12]: Affinity-purified rGPBP phosphorylates all human-derived material to a different extent
^32P incorporation, in vitro phosphorylation [13]: Affinity-purified rGPBP phosphorylates all human-derived material to a different extent

B3: FLAG-tagged recombinant GPBP (rGPBP) (enzyme)
chain: DYKDDDDKMSDNQSWNSSGSEEDPETESGPPVERCGVLSKWTNYIHGWQDRWVVLKNNALSYYKSEDETEYGCRGSICLSKAVITPHDFDECRFDISVNDSVWYLRAQDPDHRQQWIDAIEQHKTESGYGSESSLRRHGSMVSLVSGASGYSATSTSSFKKGHSLREKLAEMETFRDILCRQVDTLQKYFDACADAVSKDELQRDKVVEDDEDDFPTTRSDGDFLHSTNGNKEKLFPHVTPKGINGIDFKGEAITFKATTAGILATLSHCIELMVKREDSWQKRLDKETEKKRRTEEAYKNAMTELKKKSHFGGPDYEEGPNSLINEEEFFDAVEAALDRQDKIEEQSQSEKVRLHWPTSLPSGDAFSSVGTHRFVQKPYSRSSSMSSIDLVSASDDVHRFSSQVEEMVQNHMTYSLQDVGGDANWQLVVEEGEMKVYRREVEENGIVLDPLKATHAVKGVTGHEVCNYFWNVDVRNDWETTIENFHVVETLADNAIIIYQTHKRVWPASQRDVLYLSVIRKIPALTENDPETWIVCNFSVDHDSAPLNNRCVRAKINVAMICQTLVSPPEGNQEISRDNILCKITYVANVNPGGWAPASVLRAVAKREYPKFLKRFTSYVQEKTAGKPILF
modifications: contains phosphoserine, phosphothreonine and phosphotyrosine; positions not given
notes: Expressed in Pichia pastoris (pHIL-FLAG-n4') or in 293 cells (pc-FLAG-n4'); ON-GPBP-54m also encodes an initiation Met and a few residues before the FLAG; also called yeast rGPBP; FLAG-n4'
binding result [14]: binds
